Assay [1] concerns the target SARS-CoV-2 N439K variant (pseudovirus RVP-703) (SARS-CoV-2) (UniProt P0DTC2). Put plainly: cell-based or functional assay.
Assay [2] addresses SARS-CoV-2 South African Δ3 B.1.351 variant (pseudovirus RVP-724) (SARS-CoV-2) (UniProt P0DTC2). The assay is described as follows: cell-based or functional assay.

Where “and” joins values, the source holds several entries; their conditions need not be identical. Equal values may be shown once.

Consider REGN10987 (antibody), for which, in assay [1], the EC50 (pM) Neutralization, N439K was 2260 pM and 2220 pM; the pseudovirus neutralization, potency against REGN10933 turned out to be 1000 fold. The EC50 (pM) Neutralization, South Africa B.1.351 in assay [2] is 2.48 pM and 2.37 pM.
